The data set in a line: protease stability score; higher = more stable; yeast display proteolysis, trypsin and chymotrypsin.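 Further: log10 excess protease needed over predicted unfolded state with 0 meaning unfolded.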
In turn, “DEHAQKLLEKEKDALERNNPDHFRDMVDKDARLRVGNKVIHGREQVSEDVERKRDEMRYRFEIKHVQVHNGQIDADVVQVVNVNGHPVRNKYRITVNVTNGRAKQVTVRIDEDTLRKMDR” gave a protease stability score of -0.027.

With “DEHAQKRASQLVDKQNTGNPESIANYMDPNAKVQVGENRVHGREEIETLVKQKNKEARYEYNVESMSIQGDKLTMHLHAVVEINGQPLEFKVRVDFTFHNGRIRDVYYQLPEELLEELKR”, the protease stability score is 0.165.

“DEHARDRATQMIEAIHNGDPDTLQELLDEDAHIQIGDKEIHGHDQASRELRRRREEQNVDVRVRDLKVTGERVKIDVEIRVSHNGQPTETKVTIDVEAHNGKIKDLRMRTSQ” had a protease stability score of 0.15.

On to “DEHARHLVSELLRALESGDPDQLVKMADPNVEAQIGDKRYTGRSHMKKMQEDLKREMRYHVTDFHVEVNGNTAVADVDASVEHNGQPRRHRYRIVITFENGRAKDFSIQRDK”, for which the protease stability score was 1.12.

The sequence “DEHARKQFEDLIRALSTGDPERVAQLVDPNAHFQVGDQTIHGREHLMEDVKRRRDKMRMELHVDHVKVDENHLDAIIRVVQDTNGDPDHKKYRLVAQWQNGRVNNQEMQETS” registered a protease stability score of 0.541.

Turning to “DEHARRLVKKFIEAMKHGDPDKLMKLADPNVKFDIGDHQFKGSHEANKWLERMVRHMRFSLKVDSVKAHNGRVEVDAVFTFEVNGKPDQQRFTLDFHFNNGRVQNLTWDVDPRDWRKQLK”, the protease stability score was 0.73.

For “DEHARSVMRQFVHALNTGDPDEASRQVDKNVKATYGDKSVHGRESVKEWLEKLVKRMRVEVDLKTVHAQGDTVTAKAHLTAEVNGRPFKVDVHIEATVQNGKIKELVVDFDEHFTEQVES”, the protease stability score came to 2.56.

In the case of “DEHAVEVAKKIVEAWKDGDPKRFNELFDPNAQLRVGDHHFHGSHEADRHMQTINKEQRVRYKNVRVESRPGRVEVRVDMEKTHDGRPRRSEFTVQINVHDGQVKKLTVQEDG”, the protease stability score was 0.239.

Regarding “DEHAVRRLQEFARVLERGDESKAEQYLDPEVRITVGDREINGMKTFNNFLQEVSRQMRFSLQHVEARARNGKARIIMHFQVDHNGNPEQQRIDITASLHNGRMKRMHMRTDR”, the protease stability score amounted to 0.031.

For “DEHDAAKRAEEAVRRANSGDEKDALRLIDPNATVQVGDKNYHGREQVRRVVEELTERFDHIQFKHVSLQGNRVTARADATHNGRTEKMIFIVRAHNGRVKSWKIESS”, the protease stability score is -0.093.

“DEHDAESIQSVLTNGNFESMDELADKDVHVDVGNKRYHGQEQFRTLQTHYKNRVDHVDMHRLTQDGEKINADMRAVVNGKDFQFELVIKVHNGRIRRLQLNFTSDSQDKEHEERLR” showed a protease stability score of 0.496.

Consider “DEHDEARKFADKFVKALRDGDETLVNKLVDPNAKFVIGDKDYHGRKAASTLMHEWKNRVDEQEVKIKRISVRNGRANVDVEMVMNVDGHRVHFRVIIYAERRDGRLRVVRIEAR”, for which the protease stability score came out at 1.52.

“DEHDEKIVQTFLTALRTGDEEELQKNMDPNVSVHIGDQEVNGREEIARQLKKEQDEMRVDIRRYHISAHNGRVEVRIKFTAEVNGKPNRFTVVYDFVLHNGHIEKMHVKMSREDKKKKKQ” registered a protease stability score of -0.189.

On to “DEHDITKIMEEIAKVIRNNDEKRLVEMADPNVRVIVGDKEFQGRDEMEKFNHEYSRQADKVQVVSVNVNGNRITIEVTANINGRDLQFVVVFEIKNGTIENVHVNFTNPEVLRQAES”, for which the protease stability score turned out to be 1.19.

As for “DEHDLDKWRQVMEHNDFDKLVRLADPNVKIVVGDQEYHGREQYKELMDKLEHHVDHMELHSVSITNGEVHARLTVIINGKSIEYVFKFVVDNGKLKKLRIQFTDPEDEKIWKRAMS”, the protease stability score is 1.7.

As for “DEHDMAHKFFHDLVEAAKTGDRDKIKRLADPNVKIEYGDKRLHGHKDYANFIQKIVERVDSVNFQLQSVSVTGDKVRMIYTLDVVENGQKRTDRLQIEAQIHNGDIIAKRVVEG”, the protease stability score was found to be 0.873.

In the case of “DEHDTEVAERALNDLKTGDPDKVTEMADKHVKYVVGEKRIQGRETYAKTVEKERDEIRVDWSVHNIQVHNGKLDVSAEFRFTVNGQPNSDSARWEFTLRNGKIQEVVMKVSDRFLKQMRS”, the protease stability score is -0.15.

In turn, “DEHDVRELLKALTTGNEDDMRKMLDKDVTANIGNFRVKGREQQLTLIRRMLERADHLSVTSFSSHNGNVEVDVQVTVDGRRIRYVIRAQAHNGKVNSVRMDVTDHSVEQTLRHLHS” gave a protease stability score of 1.36.

“DEHEAEKLLKLLTENDPRQFQNEADKNVRVFYGDKEVHGREQFHTWVQRVRERVDTLEIKRVETRPGRLEVKFRVNVNGQTLEMVLVIVVHNGKIQDVKLHARDHDVMKRWKEAVS” returned a protease stability score of 0.82.

“DEHEAKKMSEMFKNLATGNPDTAKRQFDKDASVQIGDKVVHGREHLSRTLKRRRDQIRVVVEDVKVTVNGDKAEIQVIFSWEHNGEPRRSVYFATVHWHNGNVKKVTVTEQS” came in with a protease stability score of -0.121.

In turn, “DEHEEAKKVADRMIEVEKTGDEDSLTENFDPNVRFKIGDRTYHGEKDMQQLLREIKERADHIDIDVKHVTAHNGRADIDRVRVIQVDGQRRKQRIRMDLTFHNGRLHLKQMKVD” had a protease stability score of 0.31.

In turn, “DEHEKMKKHMTEWRSAFKRGDPDTVRKLADKDVDVEVGDKVLHGREQVANHVVDLARTVDHVDIRIETMEVNGDHFVLVMSAVFDVNGKRDERKFVLVAKLHNGTIKVKNMKRS” returned a protease stability score of 0.07.

“DEHEKQKKAKDAADLIRHNNPERVAELFDEDARVRVGDHTYHGREHIVRVLQTLVDQIDHMQLTDLDVHGETLRLHIVMQINGKKVDMQLDIELKNGKMKRMRFDPDRVRDVQK” returned a protease stability score of 0.466.

With “DEHELNKFEQLLRDRETGDEEHLKRLMDKDARVNVGDKNVHGREEAANQQVERVKRMDVRILHMDLKDNNGKINADITRIIHTNGHPDKHQFVLTVDVKNGRVQNIRQDDTS”, the protease stability score is -0.284.

The sequence “DEHELREILDKANEAWKRNDPDEMVKQADKDVEVKIGDKDFHGREEAHEAMKELHDRADHISIRDYDASGNKARIHMYIVVNGRRVDFVVIIVVRNGRIQKIELNVRDEKAKSNLKQ” displayed a protease stability score of 1.09.

In turn, “DEHELRRQADDFWHAVRTGDEKRIVELLDPNAHAVVGDKRYHGEKQIRQLVRSMREQVDTFRVSSITVSGDDIEIDIVLNVNGREFRATIVLRQHNGKVTELKLHPNINRALES” came in with a protease stability score of 1.28.

For the sequence “DEHEMKKVADQIVDILRTGDQDRFRDLADPNVRVSVGDKTVHGRHQAQQQVKRLKDQVDHVQLKDMKIHGNTVVVKAHVEINGNTTDRDVKFELHNGRVSHLTIDPEAQKVMDT”, the protease stability score is 0.273.

Consider “DEHFETVARLMLHALEDNNPEVLRENLDPNARVQVGDQDLTGRDTVVKVAHRLLTEIRIHIQIDSVRNQGDTVEFDAKFRANVNGRPYSVKVVIVYVVRNGRAVHIQVRMDPDFLRKLRK”, for which the protease stability score came out at 0.938.

On to “DEHHAAKRLMDNLLQAMRTGDTDTLKKLADPNVRIDVGDKTYHGREQFLQWMKELVKHVDSVHVDIKRFTVDGNNATIDAEARRDVNGNDHSEKVSVVAEVSGDKMHLKEIQYR”, for which the protease stability score was determined as 1.04.

With “DEHHEARKMIKHYFELLNQGNFEEAAKLFDEDAKVHVGDRTVNGREQIHDWFTRMRKQIDEFTVRLTKVEVSNGHVRVDFYYTKNHNGKSKSNSVDMIFQNNNGRIRAKSMQEK”, the protease stability score was -0.085.

Consider “DEHHRKEFEDMLRVEQHGNEEQLKRYMDPNARFRYGDKKVHGREEVVRQISKRRHKLRMQYDTWDIKVKGDKITADLKYVEHQNGQPEDVRVNVSIRFHNGKLVEAHRERDK”, for which the protease stability score is -0.001.

“DEHHTQEARKFLENQQTGNETELQKYADPNASAQIGDKRVHGMEKFAHTIRKEVDELRMTIHDVRFDANGEKVIVHVDVQYDHNGRPERATMVVLFKHNNGKATEITARYDK” came in with a protease stability score of 0.411.

As for “DEHIAKDLHRLAETGNWQELVEQADKDAKAKVGDKTYHGREDLQTLNRQWNEHVDHENLERVTLNPDHLVILFKMQVNGKDFAANVRIRRHNGRVEHIQVDARDDEQKKILHELLS”, the protease stability score amounted to 0.657.

For the sequence “DEHIDHMYKEILRLLETGNSEEAQKLLDPNVKVVVGDKRYHGREDYARDMVRRIKEMDVQRDFDHVSVHNGKVDADAKQTTNSNGRPSSNTVRITIVQHNGRIHMIKIDSRQ”, the protease stability score was 0.041.

“DEHIEEVATKHLKAQHTNDPKQFRDLADKDVEVEVGDKNIHGREQNANEQKRRRDEWEFEMKIDHISAHDGRAILRVKINYVVNGKPINVDAVIRLHAHNGTIKELSVQVDPDQMREVKS” returned a protease stability score of 1.

“DEHIQKQFQKILEAINQNNPEQFRRLVDKHAQITIGDEVVHGRDDAVRTLEKKMREMKVEIEVDSVNVQGEKLTATLKVELDINGKPNTDTVVVQMRAENGKLKSAHYRVDPTTRRKVKS” came in with a protease stability score of -0.179.

Consider “DEHKAHRRAQELVEVMKQGDFKRWQEMADPNADVHYGDKRVHGMNEAADVMRQIRNDADHIRVKTYEAKGERIHIDFRVSFNGKQITFDLVVEIRNGTIKTAQFDPDAIRHLES”, for which the protease stability score amounted to 0.5.

Turning to “DEHKEAEELARQLQRVARHNNPDQFAHMLDKDVKIDIGDKTVHGRENARNMMTELVKDYDSLDAKVDSFDVHNGTIDIKMTFSFNHNGKTTTTSVEFRARKHNGHVRIVYIKYG”, the protease stability score worked out at 0.234.

Sequence “DEHKEAHQFAREMNKALETGDPDRYAQLADPNVKVDIGDKTYKGREDMSQYIEDLLTDADHVSMNIRSIDVQGEKVSLDFEVSNDSNGQQTRRKVKVTAERQGDKLVIVSIKVS” returned a protease stability score of 0.184.

For the sequence “DEHKEASEYIEQAEENMRDNNFRRMMQNADENVKLKYGDKELEGREQVESWANTVQSRADHFEIRVESMTVTGDHISIVLSHIVRHDGRRVKQKIIIIFKVHNGRARIEHIEFK”, the protease stability score is 0.044.

Sequence “DEHKEREIAERYAQNLTHGNPTEIARQFDPNVKMTVGDKELQGREQVEEALHNFRERVDHHSYDTFTVSNGRVNISAQANVDGKNVKVDVRVVVNNGRVKDVKINPEQWKHVQG” returned a protease stability score of -0.234.

“DEHKHAEQHVKELIDALETGDPEKVRKNADEDVSAVYGDTTLQGTDQVVKAVHDIRNRYDSVRVEIKTVHIQNGRVVVTATVVLNQNGKNDTVSANIQLKVDNGRFKLVHDQLG” gave a protease stability score of 0.739.

In the case of “DEHKIAKKLADTVMSLMKTGNFDQLAKQADPNVKIEIGDTTIHGREELVKTQKRLNDQIDHVDVRVNKVQMHGDKVNIDMDFVINVNGKNERRKLTVRAKVHNGRAIITEIRYG”, the protease stability score turned out to be 1.01.

“DEHKIATKQMEEFTEAMKRGDEDRMKSNADENVRIEVGDKEVHGQNQFKQTVANILKRVDHIRIKLRDWRNHNGRVDLVYQVNFDHNGRHKNDKYTVRMRIQGDKAKIEHVKAP” showed a protease stability score of 0.349.

On to “DEHKLKEFATRIMEAWEQGDPRKLEELMDPNARYIVGDKTLHGREEAKKRMEEFRKNVDHVEFTSVRAQNGHISITFVANVNGERETRVVDIKVDNGRVKNMDIKHK”, for which the protease stability score is 0.7.

“DEHKLQQVFEKFLKAFNTGDRDLARKLMDPNVKLDVGDKTYHGREQAMRWMHQVRQKADHIQVQSMESSGNKATVDIVIEHNGKSTSEVIRLEVENGHFRHVRKDSP” gave a protease stability score of 0.091.

For “DEHKQIREFQKKQQKWWERGNWEELDKMFPPDARMSIGDTTVHGRESIRKTLKDLVDSADSVSVEFKHFKFHNGRAHVDAVLSVDVNGKKVDVKFNANLQVHNGTLFVDEVVRK”, the protease stability score came out at 0.118.

The record behind these values is the NTF2 design screens of Basanta et al. (2020).
